Earlier results on 2 compounds are cited in US20240011040A1, “SALICYLIC ACID-INDUCIBLE GENE EXPRESSION COMPOSITIONS AND SYSTEMS FOR CELLS” (UNIVERSITY OF HOUSTON SYSTEM, priority 2020, published 2024).

Data set [1] has as its target T1, Arabidopsis thaliana (At) NPR4 (Arabidopsis thaliana, UniProt Q5ICL9).
T1 sequence (Q5ICL9 1-574): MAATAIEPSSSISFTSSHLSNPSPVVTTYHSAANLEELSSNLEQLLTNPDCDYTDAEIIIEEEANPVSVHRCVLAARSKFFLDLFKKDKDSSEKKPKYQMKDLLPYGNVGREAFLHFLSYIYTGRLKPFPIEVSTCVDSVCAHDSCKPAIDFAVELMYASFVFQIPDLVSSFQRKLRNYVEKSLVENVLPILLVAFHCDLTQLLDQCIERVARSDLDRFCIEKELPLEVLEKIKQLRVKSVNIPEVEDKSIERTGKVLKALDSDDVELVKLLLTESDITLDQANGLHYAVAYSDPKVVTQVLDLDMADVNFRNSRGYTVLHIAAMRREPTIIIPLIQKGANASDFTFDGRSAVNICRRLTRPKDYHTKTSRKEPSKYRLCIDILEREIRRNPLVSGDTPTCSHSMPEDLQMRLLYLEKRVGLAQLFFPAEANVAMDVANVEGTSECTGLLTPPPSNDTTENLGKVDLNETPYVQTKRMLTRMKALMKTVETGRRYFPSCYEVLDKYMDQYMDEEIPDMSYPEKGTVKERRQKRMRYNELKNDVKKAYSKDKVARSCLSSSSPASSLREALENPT
The settings on record: AtNPR4, high-affinity sensor of SA.

In the case of “EPO: glycoprotein cytokine secreted mainly by the kidney; stimulates red blood cell production”, the half-life in blood result is given as “around 5 h”.

For `O=C(O)c1ccccc1O` [SA, salicylic acid], the Kd in data set [1] was 24 nM.
